Measurements taken from article PMC8298264, “Function of cofactor Akirin2 in the regulation of gene expression in model human neutrophil-like HL60 cells” (Bioscience Reports, 2021).

B1: sp¦P47985¦UCRI_HUMAN (protein, UniProt P47985 79-274, looked up)
Cytochrome b-c1 complex …: SHTDIKVPDFSEYRRLEVLDSTKSSRESSEARKGFSYLVTGVTTVGVAYAAKNAVTQFVSSMSASADVLALAKIEIKLSDIPEGKNMAFKWRGKPLFVRHRTQKEIEQEAAVELSQLRDPQHDLDRVKKPEWVILIGVCTHLGCVPIANAGDFGGYYCPCHGSHYDASGRIRLGPAPLNLEVPTYEFTSDDMVIVG
B2: sp¦Q99442¦SEC62_HUMAN (protein, UniProt Q99442 1-399, looked up)
Translocation protein SEC62: MAERRRHKKRIQEVGEPSKEEKAVAKYLRFNCPTKSTNMMGHRVDYFIASKAVDCLLDSKWAKAKKGEEALFTTRESVVDYCNRLLKKQFFHRALKVMKMKYDKDIKKEKDKGKAESGKEEDKKSKKENIKDEKTKKEKEKKKDGEKEESKKEETPGTPKKKETKKKFKLEPHDDQVFLDGNEVYVWIYDPVHFKTFVMGLILVIAVIAATLFPLWPAEMRVGVYYLSVGAGCFVASILLLAVARCILFLIIWLITGGRHHFWFLPNLTADVGFIDSFRPLYTHEYKGPKADLKKDEKSETKKQQKSDSEEKSDSEKKEDEEGKVGPGNHGTEGSGGERHSDTDSDRREDDRSQHSSGNGNDFEMITKEELEQQTDGDCEEDEEEENDGETPKSSHEKS
B3: RRRRRsp¦Q5VW38¦GP107_HUMAN (protein, UniProt Q5VW38 40-600, looked up)
Protein GPR107: RVHHLALKDDVRHKVHLNTFGFFKDGYMVVNVSSLSLNEPEDKDVTIGFSLDRTKNDGFSSYLDEDVNYCILKKQSVSVTLLILDISRSEVRVKSPPEAGTQLPKIIFSRDEKVLGQSQEPNVNPASAGNQTQKTQDGGKSKRSTVDSKAMGEKSFSVHNNGGAVSFQFFFNISTDDQEGLYSLYFHKCLGKELPSDKFTFSLDIEITEKNPDSYLSAGEIPLPKLYISMAFFFFLSGTIWIHILRKRRNDVFKIHWLMAALPFTKSLSLVFHAIDYHYISSQGFPIEGWAVVYYITHLLKGALLFITIALIGTGWAFIKHILSDKDKKIFMIVIPLQVLANVAYIIIESTEEGTTEYGLWKDSLFLVDLLCCGAILFPVVWSIRHLQEASATDGKGDSMGPLQQRANLRAGSRIESHHFAQADLELLASSCPPASVSQRAGITAAINLAKLKLFRHYYVLIVCYIYFTRIIAFLLKLAVPFQWKWLYQLLDETATLVFFVLTGYKFRPASDNPYLQLSQEEEDLEMESVVTTSGVMESMKKVKKVTNGSVEPQGEWEGAV
B4: sp¦Q9BXW7¦HDHD5_HUMAN (protein, UniProt Q9BXW7 24-423, looked up)
Haloacid dehalogenase-like …: AAGLQGRPARRCYAVGPAQSPPTFGFLLDIDGVLVRGHRVIPAALKAFRRLVNSQGQLRVPVVFVTNAGNILQHSKAQELSALLGCEVDADQVILSHSPMKLFSEYHEKRMLVSGQGPVMENAQGLGFRNVVTVDELRMAFPLLDMVDLERRLKTTPLPRNDFPRIEGVLLLGEPVRWETSLQLIMDVLLSNGSPGAGLATPPYPHLPVLASNMDLLWMAEAKMPRFGHGTFLLCLETIYQKVTGKELRYEGLMGKPSILTYQYAEDLIRRQAERRGWAAPIRKLYAVGDNPMSDVYGANLFHQYLQKATHDGAPELGAGGTRQQQPSASQSCISILVCTGVYNPRNPQSTEPVLGGGEPPFHGHRDLCFSPGLMEASHVVNDVNEAVQLVFRKEGWALE
B5: sp¦P11387¦TOP1_HUMAN (protein, UniProt P11387 2-765, looked up)
DNA topoisomerase 1: SGDHLHNDSQIEADFRLNDSHKHKDKHKDREHRHKEHKKEKDREKSKHSNSEHKDSEKKHKEKEKTKHKDGSSEKHKDKHKDRDKEKRKEEKVRASGDAKIKKEKENGFSSPPQIKDEPEDDGYFVPPKEDIKPLKRPRDEDDADYKPKKIKTEDTKKEKKRKLEEEEDGKLKKPKNKDKDKKVPEPDNKKKKPKKEEEQKWKWWEEERYPEGIKWKFLEHKGPVFAPPYEPLPENVKFYYDGKVMKLSPKAEEVATFFAKMLDHEYTTKEIFRKNFFKDWRKEMTNEEKNIITNLSKCDFTQMSQYFKAQTEARKQMSKEEKLKIKEENEKLLKEYGFCIMDNHKERIANFKIEPPGLFRGRGNHPKMGMLKRRIMPEDIIINCSKDAKVPSPPPGHKWKEVRHDNKVTWLVSWTENIQGSIKYIMLNPSSRIKGEKDWQKYETARRLKKCVDKIRNQYREDWKSKEMKVRQRAVALYFIDKLALRAGNEKEEGETADTVGCCSLRVEHINLHPELDGQEYVVEFDFLGKDSIRYYNKVPVEKRVFKNLQLFMENKQPEDDLFDRLNTGILNKHLQDLMEGLTAKVFRTYNASITLQQQLKELTAPDENIPAKILSYNRANRAVAILCNHQRAPPKTFEKSMMNLQTKIDAKKEQLADARRDLKSAKADAKVMKDAKTKKVVESKKKAVQRLEEQLMKLEVQATDREENKQIALGTSKLNYLDPRITVAWCKKWGVPIEKIYNKTQREKFAWAIDMADEDYEF
B6: sp¦P61020¦RAB5B_HUMAN (protein, UniProt P61020 2-215, looked up)
Ras-related protein Rab-5B: TSRSTARPNGQPQASKICQFKLVLLGESAVGKSSLVLRFVKGQFHEYQESTIGAAFLTQSVCLDDTTVKFEIWDTAGQERYHSLAPMYYRGAQAAIVVYDITNQETFARAKTWVKELQRQASPSIVIALAGNKADLANKRMVEYEEAQAYADDNSLLFMETSAKTAMNVNDLFLAIAKKLPKSEPQNLGGAAGRSRGVDLHEQSQQNKSQCCSN
B7: sp¦O75915¦PRAF3_HUMAN (protein, UniProt O75915 1-188, looked up)
PRA1 family protein 3: MDVNIAPLRAWDDFFPGSDRFARPDFRDISKWNNRVVSNLLYYQTNYLVVAAMMISIVGFLSPFNMILGGIVVVLVFTGFVWAAHNKDVLRRMKKRYPTTFVMVVMLASYFLISMFGGVMVFVFGITFPLLLMFIHASLRLRNLKNKLENKMEGIGLKRTPMGIVLDALEQQEEGINRLTDYISKVKE
B8: sp¦Q7L5N7¦PCAT2_HUMAN (protein, UniProt Q7L5N7 1-544, looked up)
Lysophosphatidylcholine …: MSRCAQAAEVAATVPGAGVGNVGLRPPMVPRQASFFPPPVPNPFVQQTQIGSARRVQIVLLGIILLPIRVLLVALILLLAWPFAAISTVCCPEKLTHPITGWRRKITQTALKFLGRAMFFSMGFIVAVKGKIASPLEAPVFVAAPHSTFFDGIACVVAGLPSMVSRNENAQVPLIGRLLRAVQPVLVSRVDPDSRKNTINEIIKRTTSGGEWPQILVFPEGTCTNRSCLITFKPGAFIPGVPVQPVLLRYPNKLDTVTWTWQGYTFIQLCMLTFCQLFTKVEVEFMPVQVPNDEEKNDPVLFANKVRNLMAEALGIPVTDHTYEDCRLMISAGQLTLPMEAGLVEFTKISRKLKLDWDGVRKHLDEYASIASSSKGGRIGIEEFAKYLKLPVSDVLRQLFALFDRNHDGSIDFREYVIGLAVLCNPSNTEEIIQVAFKLFDVDEDGYITEEEFSTILQASLGVPDLDVSGLFKEIAQGDSISYEEFKSFALKHPEYAKIFTTYLDLQTCHVFSLPKEVQTTPSTASNKVSPEKHEESTSDKKDD
B9: sp¦Q92878¦RAD50_HUMAN (protein, UniProt Q92878 1-1312, looked up)
DNA repair protein RAD50: MSRIEKMSILGVRSFGIEDKDKQIITFFSPLTILVGPNGAGKTTIIECLKYICTGDFPPGTKGNTFVHDPKVAQETDVRAQIRLQFRDVNGELIAVQRSMVCTQKSKKTEFKTLEGVITRTKHGEKVSLSSKCAEIDREMISSLGVSKAVLNNVIFCHQEDSNWPLSEGKALKQKFDEIFSATRYIKALETLRQVRQTQGQKVKEYQMELKYLKQYKEKACEIRDQITSKEAQLTSSKEIVKSYENELDPLKNRLKEIEHNLSKIMKLDNEIKALDSRKKQMEKDNSELEEKMEKVFQGTDEQLNDLYHNHQRTVREKERKLVDCHRELEKLNKESRLLNQEKSELLVEQGRLQLQADRHQEHIRARDSLIQSLATQLELDGFERGPFSERQIKNFHKLVRERQEGEAKTANQLMNDFAEKETLKQKQIDEIRDKKTGLGRIIELKSEILSKKQNELKNVKYELQQLEGSSDRILELDQELIKAERELSKAEKNSNVETLKMEVISLQNEKADLDRTLRKLDQEMEQLNHHTTTRTQMEMLTKDKADKDEQIRKIKSRHSDELTSLLGYFPNKKQLEDWLHSKSKEINQTRDRLAKLNKELASSEQNKNHINNELKRKEEQLSSYEDKLFDVCGSQDFESDLDRLKEEIEKSSKQRAMLAGATAVYSQFITQLTDENQSCCPVCQRVFQTEAELQEVISDLQSKLRLAPDKLKSTESELKKKEKRRDEMLGLVPMRQSIIDLKEKEIPELRNKLQNVNRDIQRLKNDIEEQETLLGTIMPEEESAKVCLTDVTIMERFQMELKDVERKIAQQAAKLQGIDLDRTVQQVNQEKQEKQHKLDTVSSKIELNRKLIQDQQEQIQHLKSTTNELKSEKLQISTNLQRRQQLEEQTVELSTEVQSLYREIKDAKEQVSPLETTLEKFQQEKEELINKKNTSNKIAQDKLNDIKEKVKNIHGYMKDIENYIQDGKDDYKKQKETELNKVIAQLSECEKHKEKINEDMRLMRQDIDTQKIQERWLQDNLTLRKRNEELKEVEEERKQHLKEMGQMQVLQMKSEHQKLEENIDNIKRNHNLALGRQKGYEEEIIHFKKELREPQFRDAEEKYREMMIVMRTTELVNKDLDIYYKTLDQAIMKFHSMKMEEINKIIRDLWRSTYRGQDIEYIEIRSDADENVSASDKRRNYNYRVVMLKGDTALDMRGRCSAGQKVLASLIIRLALAETFCLNCGIIALDEPTTNLDRENIESLAHALVEIIKSRSQQRNFQLLVITHDEDFVELLGRSEYVEKFYRIKKNIDQCSEIVKCSVSSLGFNVH
B10: sp¦Q9P035¦HACD3_HUMAN (protein, UniProt Q9P035 1-362, looked up)
Very-long-chain …: MENQVLTPHVYWAQRHRELYLRVELSDVQNPAISITENVLHFKAQGHGAKGDNVYEFHLEFLDLVKPEPVYKLTQRQVNITVQKKVSQWWERLTKQEKRPLFLAPDFDRWLDESDAEMELRAKEEERLNKLRLESEGSPETLTNLRKGYLFMYNLVQFLGFSWIFVNLTVRFCILGKESFYDTFHTVADMMYFCQMLAVVETINAAIGVTTSPVLPSLIQLLGRNFILFIIFGTMEEMQNKAVVFFVFYLWSAIEIFRYSFYMLTCIDMDWKVLTWLRYTLWIPLYPLGCLAEAVSVIQSIPIFNETGRFSFTLPYPVKIKVRFSFFLQIYLIMIFLGLYINFRHLYKQRRRRYGQKKKKIH

Test system: human HL60 cells
Assay: SWATH-MS proteomics, differential protein representation, akirin2 KO vs WT HL60 cells
Type: cell-based
Settings: sheet "Under-represented in KO"
Method in brief: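 Proteins from WT and akirin2 KO HL60 cells (n=3 biological replicates) were FASP trypsin-digested and analyzed by SWATH-MS DIA with variable windows against an IDA-derived spectral library. Identifications at 1% global FDR; quantities normalized to total area sums of all detected proteins.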

Molecule | Fold Change (akirin2 KO vs WT HL60 cells) | Log (Fold Change) (akirin2 KO vs WT HL60 cells) | Fold Change (KO vs WT HL60 cells) | Log (Fold Change) (KO vs WT HL60 cells)
B1 | 0.2341 | -0.6306 |  | 
B2 | 0.4401 | -0.3564 |  | 
B3 | 0.4419 | -0.3547 |  | 
B4 |  |  | 0.4469 | -0.3498
B5 |  |  | 0.4613 | -0.336
B6 |  |  | 0.4514 | -0.3455
B7 |  |  | 0.4503 | -0.3465
B8 |  |  | 0.4537 | -0.3432
B9 |  |  | 0.4495 | -0.3473
B10 |  |  | 0.4569 | -0.3402
